Assay results from US20190016815A1 (TRACON PHARMACEUTICALS, published 2019).
Residue numbers refer to the chain shown, from its start.

T1: human CD105 (R&D Systems Cat. No. 1097-EN) (human, UniProt P17813 26-586)
T1 construct: Bought protein, captured on the plate by mouse anti-human CD105 (Southern Biotechnologies 9811-01); also called human endoglin
T1 sequence (looked up): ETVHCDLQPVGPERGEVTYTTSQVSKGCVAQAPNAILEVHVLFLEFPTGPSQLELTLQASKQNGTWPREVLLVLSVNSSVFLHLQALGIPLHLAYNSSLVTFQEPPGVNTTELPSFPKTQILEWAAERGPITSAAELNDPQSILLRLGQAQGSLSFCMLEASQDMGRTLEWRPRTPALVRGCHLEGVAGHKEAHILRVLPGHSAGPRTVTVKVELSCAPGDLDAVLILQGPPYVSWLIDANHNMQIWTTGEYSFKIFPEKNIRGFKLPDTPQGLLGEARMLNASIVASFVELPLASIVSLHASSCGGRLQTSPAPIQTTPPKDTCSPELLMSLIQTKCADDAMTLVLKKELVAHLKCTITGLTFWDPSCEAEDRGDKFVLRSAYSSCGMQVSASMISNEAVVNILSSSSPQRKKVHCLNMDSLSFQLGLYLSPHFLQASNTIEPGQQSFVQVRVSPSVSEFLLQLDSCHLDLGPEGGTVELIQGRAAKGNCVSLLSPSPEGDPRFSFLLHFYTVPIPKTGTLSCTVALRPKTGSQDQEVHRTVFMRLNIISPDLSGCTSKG

B1: human BMP9 (R&D Systems Cat. No. 3209-BP-010) (ligand, UniProt Q9UK05 320-429, looked up)
chain: SAGAGSHCQKTSLRVNFEDIGWDSWIIAPKEYEAYECKGGCFFPLADDVTPTKHAIVQTLVHLKFPTKVGKACCVPTKLSPISVLYKDDMGVPTLKYHYEGMSVAECGCR
notes: Bought protein
B2: TRC205 antibody (antibody, IgG4, V domains shown)
VH: EVQLVESGGGLVKPGGSLRLSCAASGFTFSDAWMDWVRQAPGKGLEWVGEARSKASNHATYYAESVKGRFTISRDDSKNTLYLQMNSLKTEDTAVYYCTRWRRFFDSWGQGTLVTVSS
VL: DIQMTQSPSSLSASVGDRATITCRASSSVSYMHWYQQKPGKAPKPWAYATSNLASGVPSRFSGSGSGTDYTLTISSLQPEDFATYYCQQWSSNPLTFGGGTKVEIK
notes: IgG4); Biotinylated with a Lightning-Link kit for the direct ELISA and as the labelled tracer; also called biotinylated TRC205; unlabelled TRC205
B3: VK2ASVH1A (antibody, V domains shown)
VH: B2 VH with G49A, A51I
VL: B2 VL with M4L, A47I, T50S
B4: VK2ASVH1R (antibody, V domains shown)
VH: B2 VH with A51I, K54R
VL: B2 VL with M4L, A47I, T50S
B5: VK2SSVH1R (antibody, V domains shown)
VH: B2 VH with A51I, K54R
VL: B2 VL with M4L, A19V, T22S, A47I, T50S

Assays:
[1] = target: T1, human CD105 (R&D Systems Cat. No. …); experiment: competition ELISA on captured human CD105; human BMP9 against biotinylated TRC205 (55 ng/ml)
Method: (§1) After washing three times with PBST, a three-fold dilution series of either human BMP9 (R&D Systems Cat. No. 3209-BP-010) (413 nM to 0.56 nM), or unlabelled TRC205 antibody (40 nM to 0.05 nM) or a single concentration of an irrelevant antibody (66 nM) was mixed with a fixed concentration of biotinylated TRC205 antibody (55 ng/ml) and added to the plate. Following incubation for 1 hour at room temperature, the plate was washed three times with PBST and binding of the biotinylated TRC205 antibody was detected using streptavidin-HRP (Sigma Cat. No. 55512) and TMB substrate (Sigma Cat. No. T0440). OD450 nm values were measured on a Dynex MRX TCII plate reader.

[2] = target: T1, human CD105 (R&D Systems Cat. No. …); experiment: competition ELISA on captured human CD105; unlabelled TRC205 against biotinylated TRC205 (55 ng/ml)
Method: as §1

[3] = target: T1, human CD105 (R&D Systems Cat. No. …); experiment: competition ELISA on human CD105 captured on the plate (100 ng/ml); competitor: biotinylated chimeric anti-CD105 at 6.25 ng/ml; streptavidin-HRP, TMB, OD450
Method: FIGS. 6A-6F. Anti-CD105 competition ELISA with humanized and humanized/deimmunized antibodies. […] Binding was detected via streptavidin-HRP and TMB substrate. Absorbance (OD) at 450 nm was measured on a plate reader and this was plotted against the test antibody concentration. FIG. 6A provides the results from the chimeric control compared to VK1VH1, VK1VH2, VK2VH1 and VK2VH2. FIG. 6B provides the results from the chimeric control compared to VK1VH1, VK2AVH1A, VK2SAVH1Q, VK2SAVH1R and VK2SAVH1S. FIG. 6C provides the results from the chimeric control compared to VK2AAVH1A2, VK2ASVH1A2, VK2ASVH1Q, VK2SSVH1A and VK2SSVH1Q. FIG. 6D provides the results from the chimeric control compared to VK2VH1, VK2AAVH1A, VK2AAVH1Q, VK2AAVH1R and VK2AAVH1S. FIG. 6E provides the results from the chimeric control compared to VK2VH1, VK2ASVH1A, VK2ASVH1R, VK2ASVH1S, and VK2SAVH1A2. FIG. 6F provides the results from the chimeric control compared to VK2VH1, VK2SSVH1Q, VK2SSVH1A2, VK2SSVH1R and VK2SSVH1S.
Antibodies were tested in a competition ELISA for binding to CD105 against biotinylated chimeric anti-CD105. Briefly, chimeric anti-CD105 was biotinylated using a micro-biotinylation kit (Sigma, Catalog No. BTAG-1KT) following the manufacturer's instructions. […] Binding of the biotinylated chimeric antibody was detected via streptavidin-HRP (Sigma, Catalog No. 55512) and TMB substrate (Sigma, Catalog No. T0440). OD450 nm values were measured on a Dynex MRX TCII plate reader. The results of the competition analysis are illustrated in FIG. 6.

binding result [3] | also measured | Binder
 | IC50 [1]: 0.35 µg/mL | B1
 | IC50 [2]: 0.26 µg/mL | B2
binds |  | B3
binds |  | B4
binds |  | B5
